Values quoted from earlier work as cited in patent publication US6329011A, “Antimicrobial agent against acid-resistant and heat-resistant bacteria” (Director General of Shikoku National Agricultural …, priority 2000, dated 2001).

Legend:
[1] = heated under acidic conditions at 100° C. for 10 min.
[2] = tested on: trypsin
[3] = tested on: guinea pigs; conditions: one oral administration, 103 to 229 mg/kg body weight, observation for 7 days

Substance: thionin
- antimicrobial activity after heating [1]: does not lose antimicrobial activity
- degradation by digestive enzymes such as trypsin [2]: degraded rapidly
- abnormalities after oral administration [3]: did not result in detection of any abnormalities
